pKd: −log10 of the molar value.
Legend:
[1] = target: TbBILBO1-NTD Y64A (Trypanosoma brucei); assay: ITC
[2] = target: TbBILBO1 N-terminal domain (TbBILBO1-NTD), wild type, residues 1-120 (Trypanosoma brucei); assay: ITC

For “TbFPC4 C-terminal domain (TbFPC4-CTD), residues 357-404 (domain or fragment)”, the fold reduction of binding affinity against wild type [1] was 2.5 fold and the pKd [2] was 5.30.

Reference: paper doi:10.1101/738153
